{
  "source": "the nanobody polyreactivity screen of Harvey et al. (2022)",
  "data": [
    {"experiment": "yeast display, Sf9 membrane polyspecificity reagent, FACS + sequencing; frameworks hold sequencing errors", "how_it_was_run": "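Nanobodies came from a synthetic yeast display library in Saccharomyces cerevisiae BJ5465, induced with galactose for 36–48 hours and stained for 1 hour at 4 °C with 10% biotinylated, detergent-solubilized Sf9 membrane reagent. Cells were enriched on streptavidin microbeads and then FACS-sorted, with low and high (top ~1%) gates set on anti-HA fluorescence for expression and streptavidin fluorescence for reagent binding. Each polyreactivity label reflects the gate a clone came from. Genes were amplified by colony PCR, sequenced by MiSeq 2 × 250 and filtered by CDR length.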", "values": [
      {"sequence": "QVQLVESGGGLVQAGGSLRLSCAASGRIFGTNAMGWYRQAPGKESELVATITRGGGNTYYADSVKGRFTISRDNAKNTVYLQMISLKPEDTAVYYCGAKFHRFAWYSHYDYWGQGTQVTVSS", "polyreactivity (PSR sort gate)": "low polyreactivity"},
      {"sequence": "QVQLVESGGGFVQAGGSLRLSCAASGIIFDYDAMGWYRQAPGKERELVAAISKRGGSTYYADSVKGRFTISRDHAKNTVYFQMNSLKPEDTAVYYCAAVYAREAKRYDYWGPGTQVTVSS", "polyreactivity (PSR sort gate)": "high polyreactivity"},
      {"sequence": "QVQLVESGGGLVQAGGSLRLSCAASGSTYDIYAMGWYRQAPGKEREKVAAISWSGGSTHYADSVKGRFTISRDNAKNTVFFQMNSLKPEDTAVYYCAAVGRLWSLWRTKSYNYWGQGTEVTVSS", "polyreactivity (PSR sort gate)": "low polyreactivity"},
      {"sequence": "QVQLVESGGRLVQAGGSLRLSCAASGFIFFTYAMGWYRQAPGKERELVAVITRGGSTYYADSVKGRFTISRDNAKNTVYLQMNSLKPEDTAVYYCAARRYRYFDGTVPLDYWGQGTQVSVSS", "polyreactivity (PSR sort gate)": "high polyreactivity"},
      {"sequence": "QVQLVESGGGLVQAGGSLRLSCAASGRIFRWYAMGWNRQAPGQERELVAAITRGDITNYADSVKGRFTISRDNAKNTVYLQMNSLKPEDTAVYYCNAQWYDIYDYWGQGSQVTVSS", "polyreactivity (PSR sort gate)": "high polyreactivity"},
      {"sequence": "QVQLVESGGGLVQAGGSLRLSCAASGIIFAWYAMGWYRQAPGKERELVAAISGRGGRTYYADSVKGRFTISRDNAKNTVYLQMNSLKPEDTPVYYCNKDKSVIYDYWGQGTQVTVSS", "polyreactivity (PSR sort gate)": "high polyreactivity"},
      {"sequence": "QVQLVESGGGLVQAGGSLRLSCAASGSLFEINAMGWYRPAPGKERELVAAITGSGGSTHYADSVKGRFTISRDNAKNTVYLQMNSLKPEDTAVYYCSAVPRYQYGYWGQGTQVTVSS", "polyreactivity (PSR sort gate)": "low polyreactivity"},
      {"sequence": "QVQLVESGGGLVQEGGSLRLSCAASGIIFYYNAMGWYRQAPGKERELVARITWRAGSTYYADSVKGRFTISRDNAKNTVYLQMNSLKPEDTAVYYCNADHDGLGYYYWGQGTQVTVSS", "polyreactivity (PSR sort gate)": "high polyreactivity"},
      {"sequence": "QVQLVESGGGLVQAGGSLRLSCAASGRTFPINAMGWYRQAPGKERELVASIRWTDGTTYYADSVKGRFTISRDNAKNTVYLQMNSLKPEDTAVYYCAADAEGSASKYDYWGQGTQVTVSS", "polyreactivity (PSR sort gate)": "low polyreactivity"},
      {"sequence": "QVQLVESGGGLVQAGGSLRLSCAASGRIFYPYAMGWYRQAPGKEWELVAAINRSAGSTSYADSVKGRFTISRDNAKNTVYLQMKSLKPEDTAVYYCAAQGRWHRHFDYWGQGTQVNVSS", "polyreactivity (PSR sort gate)": "high polyreactivity"},
      {"sequence": "QVQLVESGGGLVQAGGSLRLSCAASGRTFAINTMGWYRQAPGKEREFVASITRRGGSTYYADSVKVRFTISLDNAKNTVYFQMNSLKPEDTAVYYCNAELRWRLRARAAYYYWGQGSQVTVSS", "polyreactivity (PSR sort gate)": "high polyreactivity"},
      {"sequence": "QVQLVESGGGLVQAGGSLRLSCAASGRIFKSYAMGWYRQAPGKEMELVAAINWSGGSTYYADSVKGRFTISRDNAKNTVYLQMNSLKPEDTAVYYCNALYAVRSYDSWGQGTQVTVSS", "polyreactivity (PSR sort gate)": "high polyreactivity"},
      {"sequence": "QVQLVESGGGLVQEGGSLRLSCAASGLIFYDNMGWYRQAPGKERELVAAISSSGGSTSYADSVKGRFTISRDNAKNTVYLQMNSLKPEDTAVYYCAADSYPAYLGFVGFDYWGQGTQVTVSS", "polyreactivity (PSR sort gate)": "low polyreactivity"},
      {"sequence": "QVQLVESGGGLVQAGGSLRLSCAASGFIFSHYAMGWYRQSPGKEREFVATSSKRGGSTTYADSVKGRFTISRDNAKNTVYLQMNSLKPEDTAVYYCAADRYRSFERYDYWGQGTQVTVSS", "polyreactivity (PSR sort gate)": "high polyreactivity"},
      {"sequence": "QVQLVESGGGLVQAGGRLRLSCAASGSTLEINGMGWYRQAPGKEREFVADISIGGDTNYADSVKGRFTISRDNAKNTEMNSLKPEDTAVYYCNTDYFGSLVVVIFDYWGQGTQVSVSS", "polyreactivity (PSR sort gate)": "low polyreactivity"},
      {"sequence": "QVQLVETGRGLVQAGGSLRLSCAASGGTFVVYSMGWYRQAPGTERELVAAITWIGDSTYYADSVKRRFTISRDNAKNTVYVQMNSLNPEDTAVYYCNKAKLYLVGRARFQTNYGLYDFWGQVTQVTVSS", "polyreactivity (PSR sort gate)": "low polyreactivity"},
      {"sequence": "QVQLVESGGGLVQAGGSLRLSCAASGYIFSGYAMGWYRQAPGKERELVAAISSNGGSTYYADSVKGRFTISRDNAKNTVYLQMNSLKPEDTAVYYCNRGLAARVGRGDYWGQGTQVTVSS", "polyreactivity (PSR sort gate)": "low polyreactivity"},
      {"sequence": "QVQLEETGGGLVQAGGSLRLSCAASGSIFHYNAMGWYRQAPGKEREFVAAITGGGGTYYADSVKGRCTISRDNAKNTVYFQMNSLKPEDTGVYYCAAQSRTSFRFNYWGQVTQVTVSS", "polyreactivity (PSR sort gate)": "high polyreactivity"},
      {"sequence": "QVQLVESGGGLVQAGGSLRLSCAASGSTFTKYAMGWYRQEPGKDREFVAGINYSGGSTYYADSVKVRFTISRDNAKNTVYLLMKSLKPEDTAVYYCNARKQNRRGAKYDYWGQGTQVTVSS", "polyreactivity (PSR sort gate)": "high polyreactivity"},
      {"sequence": "QVQVVESGGGLVQAGGSLRLSCAASGSTFVIYDMGWYRQAPGKERELVAVITIIGGSTYYADAVKGRFTISRDNAKNTVYLELNSLKPEDTAVYDCAVEVGYTDSPYSYDYWGQGTQVTVSS", "polyreactivity (PSR sort gate)": "low polyreactivity"},
      {"sequence": "QDQLVESGAGLVQAGGSLRLSCAASGRIFPGYAMGWYRQAPGKERELVAGITWRTARTYYADSVKGRFTISRDNAKNTVYLQMNSLKPEDTAVYYCAAKYARYGRHVIFDYWGQGTQVTVSS", "polyreactivity (PSR sort gate)": "high polyreactivity"},
      {"sequence": "QVQLVESGGGLVQAGGSLRLSCAASGSIFYTYAMGWYRQAPGKEREFVASITYRGSNTYYADSVKGRFTISRDNAKNTVYLQMNSLKPEDTAVYYCAADSFYYRPEYDYWGQGTKVTVSS", "polyreactivity (PSR sort gate)": "low polyreactivity"},
      {"sequence": "QVQLVESGGGLVQAGGSLRLSCDASGITFWGYVMGWYRQAPGKERELVAAISSSGGRTYYADSVKGRFTISLDNAKNTVYLQMNSLKPEDTAVYYCAARFLYANRYSVDYDYCGQGTQVTVSS", "polyreactivity (PSR sort gate)": "high polyreactivity"},
      {"sequence": "QVQLVESGGGLVQAGGSLRLSCAASGFTFYWYAMGWYRQAPGKERELVAAISTSDTSTYADSVKGRFTISRDNAKNTVYLQMNSLKPEDTAVYYCNRRQYYYYGTSRYNYWGQGTQVTVSS", "polyreactivity (PSR sort gate)": "low polyreactivity"},
      {"sequence": "QVQLVESGGGLVQAGGSLRLSCAASGSIFASNTMGWYRQAPGKERELVAAISFRGGRTYYADSVKGRFTISRDNAKNTVYLQMNSLKPEDTAVYYCNAAYGRYPRGGYWGQGTQVTVSS", "polyreactivity (PSR sort gate)": "high polyreactivity"},
      {"sequence": "QVQLVESGGGLDQAGGSLRLSSAASGSIFVDNAMGWYRQAPGKERELVAAISRRGGSTYYADSVKGRFTISRDNAKNTVYLQMNSLKPEDTAVYYCNKKNIQFYQGASDYWGQGTQVTVSS", "polyreactivity (PSR sort gate)": "high polyreactivity"},
      {"sequence": "QVQLVESGGGLVQAGGSLRLSCAASGSTFWLYAMGWYRQAPGKEREFVATISSSTTYYADSVKGRFTISRDNAKNTVYFQMNSLKPQDTAVYYCNAADYYSDVWSSVDYEGDYWGQGTQVTVSS", "polyreactivity (PSR sort gate)": "low polyreactivity"},
      {"sequence": "QVQLVESGGGLVQAGGSLRLSCAASGSIFSVNAMGWYRQAPGKERELVATITAGGGSTNYADSVKVRFTISRDNAKNTVYLQMNSLKPEDTAVYYCAADYWYVSWYDYWGQGTQVTVSS", "polyreactivity (PSR sort gate)": "low polyreactivity"},
      {"sequence": "QVQLVESGGVLVQAGGSLRLSCADSGRTFYTNAMGWYRQAPGKERELVAAITGSDGNTYYADSVKGRFTISRENAKNTVYLQMISLKAEDTAVYYGFDYWVQGTQVTVSS", "polyreactivity (PSR sort gate)": "low polyreactivity"},
      {"sequence": "QVQLVESGGGLVQAGGSLRLSCAASGLTFYQNDLGWYRQAPGKERELVAAITLSGDITYYADSVKGRFTISRDNAKNTVFLQMNSLKPEDTAVYYCNADLYVDPWTYFGYDYWGQGTQVTVSS", "polyreactivity (PSR sort gate)": "low polyreactivity"},
      {"sequence": "QVQLVESGGGLVQAGGSLRLSCPASGRTFYGYPMGWYRQAPGKERELVAAISRRGGSTNYADSVKGRFTISRDHAKNTVYLQMNSRKPEDTAVYSCNANYYRTHYDYWGQGTQVTVSS", "polyreactivity (PSR sort gate)": "high polyreactivity"},
      {"sequence": "QVQLVESGGGLVQAGGSLRLSCAASGSIFRSYAMGWYRQAPGKERELVAAITFSGGRTYYADSVKGRFTISRDNAKNTVYLQMNSLKPEDTGVYYCNARHRNLAEYDYWGQGTQVTVSS", "polyreactivity (PSR sort gate)": "low polyreactivity"},
      {"sequence": "QVQLVESGGGLVQAGGSLRLSCAASGSTFVNNAMGWYRQAPGKERELVAAIRSSDGRTYYADSVKGRFTISRDNAKNTVYLLMNSLKPEDTAGYYCNAGYWRFIDSYDYWGQGTQVTVSS", "polyreactivity (PSR sort gate)": "high polyreactivity"},
      {"sequence": "QVQLVESGGGLDQAGGSLRLSCAASGRTFNPYVLGWYRQAPGKERELVAVITSSGDSTYYADSVKGRFTISRDNAKNTVYLQMNSLKPEDTAVYYCNADYLYYDYDYWGQGTQVTVSS", "polyreactivity (PSR sort gate)": "high polyreactivity"},
      {"sequence": "QVQLVESGGGLVQAGGSLRLSCAASGSIFINNAMGWYRQAPGKERELVAAISSSGTTYYADSVKGRFTISRDNAKNSVYLQMNSLKPEDTAVYYCNARYSLHSYYCFIYDSWGQGTKVTVSS", "polyreactivity (PSR sort gate)": "low polyreactivity"},
      {"sequence": "QVQLVESGGGLVQAGGSLRLSCAASGRTFQTNDMGWYRQAPGKERELVAAISRRGGSTYYADSVKGRFTISRDNAKNTVYLQMNSLKPEDTAVYYCAATRLSRYEYWGQGTQVTVSS", "polyreactivity (PSR sort gate)": "low polyreactivity"},
      {"sequence": "QVQLVESGGGLVQAGGSLRLSCAASGFTFDWNAMGWYRQAPGKERELVAAISNSDGSTYYADSVKGRFTISRDNAKNTVYLQMNSLKPEDTAVYYCNKLYRGGWYAYWGQGTQVTVSS", "polyreactivity (PSR sort gate)": "low polyreactivity"},
      {"sequence": "QVQLVESGGGLVQAGGSLRLSCAASGFTFFKYAMGWYRQAPGKERELVAAISSSGGSTYYADSVKGRFTISRDNAKNTVYLQMNSLKPEDTAVYYCNRPAAVYFKLVTAYDYWGQGTQVTVSS", "polyreactivity (PSR sort gate)": "high polyreactivity"},
      {"sequence": "QVQLVESGGGLVQAGGSLRLRCAASGRIFKSYAMGWYRQAPGKERELVAAINWSGGSTYYADSVKGRFTISRDNAKNTVYLQMNSLKPEDTAVYYCNALYAVRSYDSWGQGTQVTVSS", "polyreactivity (PSR sort gate)": "high polyreactivity"},
      {"sequence": "QVQLVESGGGLVQAGGSLRLSCAASGRTFYLYAMGWYRPAPGKERELVAAITWSGGSTYYADSVKGRFTISRYNAKNTVFLQMNSLKPEDTAVYYCAAGLYLFQIWFGNEYDYWGQGTQVTVSS", "polyreactivity (PSR sort gate)": "high polyreactivity"},
      {"sequence": "QVQLVESGGGLVQAGGSLRLSCAASGRTLVSNAMGWYRQAPGKERELVARISYRGGSTYYADSVKGRFTISRDNAKNTVYLQMNSLKPEDTAVYYCAAGVRGSGRRMEYWGQGTQVTVSS", "polyreactivity (PSR sort gate)": "high polyreactivity"}
    ]}
  ]
}
